Experimental data: patent US20090142273A1, “Activatable cest MRI agent” (CASE WESTERN RESERVE UNIVERSITY, priority 2006, published 2009)

What was measured:
caspase-3 [1] = molecular target: T1, caspase-3 (Homo sapiens, UniProt P42574); assay: […] spectra of DEVD-(Tm-DOTA) amide before and after adding caspase-3; type: biochemical
T1 sequence (P42574 29-175 limits assumed): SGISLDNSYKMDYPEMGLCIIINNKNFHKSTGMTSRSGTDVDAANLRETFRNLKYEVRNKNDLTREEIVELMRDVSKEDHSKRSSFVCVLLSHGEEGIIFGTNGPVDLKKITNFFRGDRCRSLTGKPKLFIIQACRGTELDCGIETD
T1 sequence (P42574 176-277 limits assumed): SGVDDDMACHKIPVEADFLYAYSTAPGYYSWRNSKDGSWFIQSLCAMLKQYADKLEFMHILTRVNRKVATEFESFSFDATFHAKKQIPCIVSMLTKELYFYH
Excerpt: In one embodiment, the caspase-3 substrate DEVD (Asp-Glu-Val-Asp) was elongated using the amino group on one side arm of lanthanide ligand anchored on the polymer support. FIG. 9 illustrates the conversion of the DEVD-(Ln-DOTA) 90 to amino-(Ln-DOTA) 92 through cleavage by caspase-3. […] Accordingly, the enzymatic activity of caspase-3 can be detected by the change in […] effect caused by this biotransformation.
FIG. 16 illustrates […] spectra 998 and MR parametric map 999 of DEVD-(Tm-DOTA) amide 155 before and after adding caspase-3. […] spectra were acquired at 37° C. and pH 7.4 with a continuous wave saturation pulse applied at 31 μT for 4 seconds. The deconvoluted […] spectrum of the product after reaction, showing a […] effect at +8 ppm, is also shown. MR images were acquired at 37° C. and pH 7.4 with a Bruker Biopsin 9.4 T MR scanner. A MSME T1 method was used with TR/TE=1623/10.9 ms and a train of Gaussian-shaped saturation pulses applied at 25 μT for 1.106 s, and with saturation offsets at −51 ppm and +51 ppm. The parametric map was obtained by subtracting the MR image with a saturation offset at −51 ppm from the MR image with saturation offset at +51 ppm. The magnitude of the scale of the original MR images was used as the scale for this parametric map, to properly represent the difference in MRI contrast obtained with different saturation offsets. The […] spectrum of 155 (25 mM, pH 7.4) was recorded by applying selective saturation in 1 ppm increments from +100 ppm to −100 ppm. A […] effect was detected at −51 ppm, which was assigned to the amide most proximal to the lanthanide ion in 155, based on identical results obtained from a similar compound, Tm3^+-DOTAMGly. After 48 nM of caspase-3 was added and the mixture was incubated at 37° C. and pH 7.4 for 1 hour, the […] effect at −51 ppm was decreased and an asymmetrical shape in the […] spectrum was observed near water. This asymmetry was analyzed by deconvolution to show a […] effect at +8 ppm.

caspase-3 [2] = molecular target: T1, caspase-3; assay: MR parametric map of DEVD-(Tm-DOTA) amide before and after reaction with caspase-3; type: biochemical; conditions: saturation at −51 ppm vs +51 ppm, 9.4 T, 37° C., pH 7.4
Experimental: FIG. 16 illustrates […] spectra 998 and MR parametric map 999 of DEVD-(Tm-DOTA) amide 155 before and after adding caspase-3. […] spectra were acquired at 37° C. and pH 7.4 with a continuous wave saturation pulse applied at 31 μT for 4 seconds. The deconvoluted […] spectrum of the product after reaction, showing a […] effect at +8 ppm, is also shown. MR images were acquired at 37° C. and pH 7.4 with a Bruker Biopsin 9.4 T MR scanner. A MSME T1 method was used with TR/TE=1623/10.9 ms and a train of Gaussian-shaped saturation pulses applied at 25 μT for 1.106 s, and with saturation offsets at −51 ppm and +51 ppm. The parametric map was obtained by subtracting the MR image with a saturation offset at −51 ppm from the MR image with saturation offset at +51 ppm. The magnitude of the scale of the original MR images was used as the scale for this parametric map, to properly represent the difference in MRI contrast obtained with different saturation offsets. The […] spectrum of 155 (25 mM, pH 7.4) was recorded by applying selective saturation in 1 ppm increments from +100 ppm to −100 ppm. A […] effect was detected at −51 ppm, which was assigned to the amide most proximal to the lanthanide ion in 155, based on identical results obtained from a similar compound, Tm3^+-DOTAMGly. […] This asymmetry was analyzed by deconvolution to show a […] effect at +8 ppm. […]

DEVD-(Tm-DOTA) amide [compound 155]
change of PARACEST effect at −51 ppm after caspase-3 (caspase-3 [1]; 48 nM caspase-3, 37° C., pH 7.4, 1 hour): decreased | PARACEST effect after cleavage by caspase-3 (free amine) (caspase-3 [1]; 48 nM caspase-3, 37° C., pH 7.4, 1 hour, by deconvolution): +8 ppm | PARACEST effect, MR saturation frequency of amide (caspase-3 [1]; before caspase-3, 25 mM, pH 7.4, 37° C., 31 μT for 4 seconds): −51 ppm | change in water MR signal after reaction with caspase-3 (caspase-3 [2]): no significant change | decrease in water MR signal due to the PARACEST effect before the enzymatic reaction (caspase-3 [2]): ~14.5%
